Source: US20090253131A1, “HYBRID FUSION REPORTER AND USES THEREOF” (Promega Corporation, priority 2007, published 2009)
Read-outs that look alike come from different tables or passages of the source.

Legend:
Assay in all cases: cell-based or functional assay
[1] = target: hRL (92-311)-FKBP (Renilla) (UniProt P27652)
[2] = target: hRL (92-311)-FKBP (Renilla) (UniProt P27652); remark: listed apart in the source
[3] = target: hRL (112-311)-FKBP (Renilla) (UniProt P27652)
[4] = target: FKBP-hRL (112-311) (Renilla) (UniProt P62942)
[5] = target: hRL (112-311)-FKBP (Renilla) (UniProt P27652); remark: listed apart in the source
[6] = target: Rluc8 (92-311)-FKBP (Renilla) (UniProt P27652)
[7] = target: Rluc8 (112-311)-FKBP (Renilla) (UniProt P27652)
[8] = target: FKBP-hRL (92-311) (Renilla) (UniProt P62942)
[9] = target: FKBP-hRL (92-311) (Renilla) (UniProt P62942); remark: listed apart in the source
[10] = target: FKBP-hRL (112-311) (Renilla) (UniProt P62942); remark: listed apart in the source

Chain of FKBP-hRL (112-311) (Renilla) (P62942 other isoform, or with tags, fused parts or gaps): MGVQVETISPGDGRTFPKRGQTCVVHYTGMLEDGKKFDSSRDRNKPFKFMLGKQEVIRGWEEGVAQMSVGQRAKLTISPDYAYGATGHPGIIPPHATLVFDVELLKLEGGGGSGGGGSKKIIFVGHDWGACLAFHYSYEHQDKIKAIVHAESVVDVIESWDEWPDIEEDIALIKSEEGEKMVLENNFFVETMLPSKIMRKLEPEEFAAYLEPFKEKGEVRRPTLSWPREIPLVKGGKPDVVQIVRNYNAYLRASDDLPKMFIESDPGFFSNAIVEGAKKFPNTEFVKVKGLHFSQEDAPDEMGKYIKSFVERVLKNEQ
Chain of hRL (112-311)-FKBP (Renilla) (P27652 other isoform, or with tags, fused parts or gaps): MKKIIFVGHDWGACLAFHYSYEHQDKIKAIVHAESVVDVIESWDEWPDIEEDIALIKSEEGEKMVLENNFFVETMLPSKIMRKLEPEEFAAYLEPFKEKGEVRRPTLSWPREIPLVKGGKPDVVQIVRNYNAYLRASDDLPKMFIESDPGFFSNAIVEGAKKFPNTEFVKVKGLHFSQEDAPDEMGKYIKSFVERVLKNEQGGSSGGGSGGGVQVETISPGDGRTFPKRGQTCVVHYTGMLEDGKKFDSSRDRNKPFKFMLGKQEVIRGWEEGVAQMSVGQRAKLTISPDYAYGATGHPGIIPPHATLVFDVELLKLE
Chain of FKBP-hRL (92-311) (Renilla) (P62942 other isoform, or with tags, fused parts or gaps): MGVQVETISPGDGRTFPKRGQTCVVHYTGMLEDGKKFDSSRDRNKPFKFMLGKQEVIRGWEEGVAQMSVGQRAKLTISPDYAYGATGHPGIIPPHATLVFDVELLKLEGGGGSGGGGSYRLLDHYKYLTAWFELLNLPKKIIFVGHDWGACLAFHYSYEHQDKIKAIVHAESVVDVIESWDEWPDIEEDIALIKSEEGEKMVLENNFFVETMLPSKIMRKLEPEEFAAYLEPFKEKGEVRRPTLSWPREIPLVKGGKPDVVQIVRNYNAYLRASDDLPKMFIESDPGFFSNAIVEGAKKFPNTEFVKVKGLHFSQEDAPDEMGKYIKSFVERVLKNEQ
Chain of hRL (1-111)-FRB (P27652 other isoform, or with tags, fused parts or gaps): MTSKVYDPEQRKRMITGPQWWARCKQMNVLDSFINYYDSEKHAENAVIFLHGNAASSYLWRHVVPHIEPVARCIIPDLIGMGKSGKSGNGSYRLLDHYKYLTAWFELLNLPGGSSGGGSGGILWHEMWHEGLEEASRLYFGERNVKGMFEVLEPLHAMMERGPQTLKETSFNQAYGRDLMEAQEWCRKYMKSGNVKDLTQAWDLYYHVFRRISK
Chain of hRL (1-91)-FRB (P27652 other isoform, or with tags, fused parts or gaps): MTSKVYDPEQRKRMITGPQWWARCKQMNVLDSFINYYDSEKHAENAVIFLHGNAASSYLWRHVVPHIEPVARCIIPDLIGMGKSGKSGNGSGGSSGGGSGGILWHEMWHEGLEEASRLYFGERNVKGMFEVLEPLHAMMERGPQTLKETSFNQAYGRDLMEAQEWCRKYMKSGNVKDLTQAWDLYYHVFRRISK
Chain of hRL (92-311)-FKBP (Renilla) (P27652 other isoform, or with tags, fused parts or gaps): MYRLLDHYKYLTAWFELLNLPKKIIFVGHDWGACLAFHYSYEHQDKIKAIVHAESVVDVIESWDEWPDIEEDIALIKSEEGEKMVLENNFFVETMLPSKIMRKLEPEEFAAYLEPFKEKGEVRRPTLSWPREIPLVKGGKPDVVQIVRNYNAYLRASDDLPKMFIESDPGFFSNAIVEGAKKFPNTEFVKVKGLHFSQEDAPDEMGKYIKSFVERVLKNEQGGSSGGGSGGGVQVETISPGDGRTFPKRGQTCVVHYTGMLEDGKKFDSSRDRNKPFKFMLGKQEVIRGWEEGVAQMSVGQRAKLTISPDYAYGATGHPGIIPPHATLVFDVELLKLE
Chain of Rluc8 (92-311)-FKBP (Renilla) (P27652 other isoform, or with tags, fused parts or gaps): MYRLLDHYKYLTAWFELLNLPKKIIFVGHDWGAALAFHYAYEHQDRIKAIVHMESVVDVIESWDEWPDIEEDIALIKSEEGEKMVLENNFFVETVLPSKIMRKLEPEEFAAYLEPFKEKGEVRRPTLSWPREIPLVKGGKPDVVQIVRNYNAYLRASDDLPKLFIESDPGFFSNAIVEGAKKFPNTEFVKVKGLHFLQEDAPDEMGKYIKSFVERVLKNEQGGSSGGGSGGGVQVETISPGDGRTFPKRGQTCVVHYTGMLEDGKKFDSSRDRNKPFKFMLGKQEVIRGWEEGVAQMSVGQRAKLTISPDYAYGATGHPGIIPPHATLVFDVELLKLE
Chain of Rluc8 (1-111)-FRB (P27652 other isoform, or with tags, fused parts or gaps): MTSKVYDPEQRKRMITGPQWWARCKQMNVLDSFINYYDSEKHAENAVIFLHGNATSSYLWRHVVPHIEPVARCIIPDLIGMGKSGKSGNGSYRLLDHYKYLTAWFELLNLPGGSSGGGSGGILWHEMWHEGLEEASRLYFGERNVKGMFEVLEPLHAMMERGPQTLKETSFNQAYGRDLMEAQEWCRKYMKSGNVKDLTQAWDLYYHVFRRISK
Chain of Rluc8 (112-311)-FKBP (Renilla) (P27652 other isoform, or with tags, fused parts or gaps): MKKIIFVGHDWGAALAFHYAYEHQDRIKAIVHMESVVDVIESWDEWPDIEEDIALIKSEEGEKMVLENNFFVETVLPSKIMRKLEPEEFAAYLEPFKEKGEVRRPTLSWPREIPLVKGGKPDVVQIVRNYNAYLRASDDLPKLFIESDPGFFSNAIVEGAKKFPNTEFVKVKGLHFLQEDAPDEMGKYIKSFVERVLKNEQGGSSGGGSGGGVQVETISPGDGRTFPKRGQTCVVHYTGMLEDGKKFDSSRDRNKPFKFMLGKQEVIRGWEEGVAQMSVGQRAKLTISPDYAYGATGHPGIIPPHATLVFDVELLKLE
Chain of Rluc8 (1-91)-FRB (P27652 other isoform, or with tags, fused parts or gaps): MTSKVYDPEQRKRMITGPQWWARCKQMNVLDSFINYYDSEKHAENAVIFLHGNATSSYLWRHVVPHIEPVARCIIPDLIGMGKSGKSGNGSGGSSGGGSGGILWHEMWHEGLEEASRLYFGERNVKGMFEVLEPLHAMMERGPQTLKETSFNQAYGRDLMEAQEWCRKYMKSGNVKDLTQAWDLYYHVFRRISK

For “FRB-hRL (1-91) (from UniProt P42345 2021-2113; P27652 1-91)”, which Renilla luciferase activity, +rapamycin against no rapamycin [1] is on record?
Its Renilla luciferase activity, +rapamycin against no rapamycin is 134 fold.

And the Renilla luciferase activity, +rapamycin against no rapamycin [2]?
Its Renilla luciferase activity, +rapamycin against no rapamycin is 10.4 fold.

For “FRB-hRL (1-111) (from UniProt P42345 2021-2113; P27652 1-111)”, which Renilla luciferase activity, +rapamycin against no rapamycin [3] is on record?
The Renilla luciferase activity, +rapamycin against no rapamycin was 46 fold.

What about the Renilla luciferase activity, +rapamycin against no rapamycin [4] of the same substance?
The Renilla luciferase activity, +rapamycin against no rapamycin was 5.3 fold.

And the Renilla luciferase activity, +rapamycin against no rapamycin [5]?
Its Renilla luciferase activity, +rapamycin against no rapamycin is 51 fold.

How did the Renilla luciferase activity, +rapamycin against no rapamycin [6] turn out when “Rluc8 (1-91)-FRB (from UniProt P27652 1-91; P42345 2021-2113)” was run?
The Renilla luciferase activity, +rapamycin against no rapamycin was 4 fold.

With “Rluc8 (1-111)-FRB (from UniProt P27652 1-111; P42345 2021-2113)” as the substance, how does the Renilla luciferase activity, +rapamycin against no rapamycin [7] read?
The Renilla luciferase activity, +rapamycin against no rapamycin was 17 fold.

“hRL (1-91)-FRB (from UniProt P27652 1-91; P42345 2021-2113)” was tested. Which Renilla luciferase activity, +rapamycin against no rapamycin [8] did it give?
Its Renilla luciferase activity, +rapamycin against no rapamycin is 8.6 fold.

And the Renilla luciferase activity, +rapamycin against no rapamycin [9]?
Its Renilla luciferase activity, +rapamycin against no rapamycin is 13.5 fold.

With “hRL (1-111)-FRB (from UniProt P27652 1-111; P42345 2021-2113)” as the substance, how does the Renilla luciferase activity, +rapamycin against no rapamycin [4] read?
The Renilla luciferase activity, +rapamycin against no rapamycin was 81 fold.

And the Renilla luciferase activity, +rapamycin against no rapamycin [10]?
The Renilla luciferase activity, +rapamycin against no rapamycin was 114 fold.
